Laboratory results as given in patent US20210395381A1 (OSSIANIX, published 2021).

Experiments:
recombinant mouse TfR-1 = target: T1, recombinant mouse TfR-1 (mouse, UniProt Q62351 89-763); assay: phage ELISA
T1 construct: Recombinant protein coated at 1 ug/ml in the phage ELISA; also called mTfR1; mouse transferrin receptor-1

recombinant human TfR-1 = target: T2, recombinant human TfR-1 (human, UniProt P02786 89-760); assay: phage ELISA
T2 construct: Recombinant protein coated at 1 ug/ml in the phage ELISA; also called hTfR1; human transferrin receptor-1
T2 sequence (P02786 89-760 limits assumed): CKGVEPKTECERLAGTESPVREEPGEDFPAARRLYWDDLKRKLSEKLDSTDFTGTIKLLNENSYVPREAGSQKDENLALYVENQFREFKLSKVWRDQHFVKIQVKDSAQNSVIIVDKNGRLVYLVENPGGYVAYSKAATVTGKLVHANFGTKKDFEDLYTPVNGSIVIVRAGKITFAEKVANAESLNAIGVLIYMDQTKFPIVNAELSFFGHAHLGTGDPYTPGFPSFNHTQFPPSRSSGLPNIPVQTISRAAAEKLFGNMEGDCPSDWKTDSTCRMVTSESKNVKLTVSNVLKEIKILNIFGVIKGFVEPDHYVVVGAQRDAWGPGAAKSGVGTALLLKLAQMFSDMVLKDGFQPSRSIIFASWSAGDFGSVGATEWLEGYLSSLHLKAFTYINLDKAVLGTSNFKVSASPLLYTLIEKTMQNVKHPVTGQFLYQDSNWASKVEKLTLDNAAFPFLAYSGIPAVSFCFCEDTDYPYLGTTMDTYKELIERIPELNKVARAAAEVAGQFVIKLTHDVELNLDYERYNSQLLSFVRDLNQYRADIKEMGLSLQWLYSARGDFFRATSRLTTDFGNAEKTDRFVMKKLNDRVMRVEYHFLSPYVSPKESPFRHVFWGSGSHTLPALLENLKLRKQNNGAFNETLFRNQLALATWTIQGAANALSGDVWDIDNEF

T1 sequence (Q62351 89-763 limits assumed): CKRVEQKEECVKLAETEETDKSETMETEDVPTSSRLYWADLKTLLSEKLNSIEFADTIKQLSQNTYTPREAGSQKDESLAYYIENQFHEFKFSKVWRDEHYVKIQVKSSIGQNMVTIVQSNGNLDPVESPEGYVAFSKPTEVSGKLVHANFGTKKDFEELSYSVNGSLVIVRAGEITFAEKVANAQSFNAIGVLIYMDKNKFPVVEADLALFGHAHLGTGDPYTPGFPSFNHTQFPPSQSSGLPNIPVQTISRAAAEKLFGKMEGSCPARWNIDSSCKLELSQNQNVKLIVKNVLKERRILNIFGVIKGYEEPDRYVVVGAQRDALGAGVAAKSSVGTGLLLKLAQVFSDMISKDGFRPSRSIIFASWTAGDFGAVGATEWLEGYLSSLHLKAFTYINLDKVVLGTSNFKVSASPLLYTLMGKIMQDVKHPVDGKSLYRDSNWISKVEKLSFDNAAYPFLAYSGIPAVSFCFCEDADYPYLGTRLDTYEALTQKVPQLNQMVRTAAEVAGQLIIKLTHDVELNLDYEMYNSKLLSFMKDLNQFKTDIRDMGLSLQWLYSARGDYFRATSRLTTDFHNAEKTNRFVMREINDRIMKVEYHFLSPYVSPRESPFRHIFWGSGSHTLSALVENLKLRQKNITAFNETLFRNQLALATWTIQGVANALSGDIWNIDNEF

B1: Clone 8.1 (VNAR)
VNAR: ARVDQTPQTITKETGESLTINCVLRDSNCALPSTYWYRKKSGSTNEESISKGGRYVETVNSGSKSFSLRINDLTVEDSGTYRCKVLRLLSSILRGCNYRKHDVYGDGTAVTVNA
notes: VNAR on phage; Clone 8 framework
A450 (recombinant mouse TfR-1): 0.312 A450 | A450 (recombinant human TfR-1): 0.371 A450

B2: Clone 8.7 (VNAR)
VNAR: ARVDQTPQTITKETGESLTINCVLRDSNCALPSTYWYRKKSGSTNEESISKGGRYVETVNSGSKSFSLRINDLTVEDSGTYRCKVIAQLSSILKACKYRKHDVYGDGTAVTVNA
notes: as for B1
A450 (recombinant mouse TfR-1): 0.123 A450 | A450 (recombinant human TfR-1): 0.087 A450

B3: Clone 8.4 (VNAR)
VNAR: ARVDQTPQTITKETGESLTINCVLRDSNCALPSTYWYRKKSGSTNEESISKGGRYVETVNSGSKSFSLRINDLTVEDSGTYRCKVKLWLSSILRGCNYRKHDVYGDGTAVTVNA
notes: as for B1
A450 (recombinant mouse TfR-1): 0.188 A450 | A450 (recombinant human TfR-1): 0.173 A450

B4: Clone 8.5 (VNAR)
VNAR: ARVDQTPQTITKETGESLTINCVLRDSNCALPSTYWYRKKSGSTNEESISKGGRYVETVNSGSKSFSLRINDLTVEDSGTYRCKVIAQLGWWLRGCNYRKHDVYGDGTAVTVNA
notes: as for B1
A450 (recombinant mouse TfR-1): 0.172 A450 | A450 (recombinant human TfR-1): 0.152 A450

B5: Clone 8.3 (VNAR)
VNAR: ARVDQTPQTITKETGESLTINCVLRDSNCALPSTYWYRKKSGSTNEESISKGGRYVETVNSGSKSFSLRINDLTVEDSGTYRCKVVRFLSSILRGCNYRKHDVYGDGTAVTVNA
notes: as for B1
A450 (recombinant mouse TfR-1): 0.194 A450 | A450 (recombinant human TfR-1): 0.27 A450

B6: Clone 8.137 (VNAR)
VNAR: ARVDQTPQTITKETGESLTINCVLRDSNCALPSTYWYRKKSGSTNEESISKGGRYVETVNSGSKSFSLRINDLTVEDSGTYRCKVIAQLSSILRGCNYFGKDVYGDGTAVTVNA
notes: as for B1
A450 (recombinant human TfR-1): 0.076 A450

B7: Clone 8.10 (VNAR)
VNAR: ARVDQTPQTITKETGESLTINCVLRDSNCALPSTYWYRKKSGSTNEESISKGGRYVETVNSGSKSFSLRINDLTVEDSGTYRCKVIAQLAIELRGCNYRKHDVYGDGTAVTVNA
notes: as for B1
A450 (recombinant mouse TfR-1): 0.101 A450 | A450 (recombinant human TfR-1): 0.072 A450

B8: Clone 8.8 (VNAR)
VNAR: ARVDQTPQTITKETGESLTINCVLRDSNCALPSTYWYRKKSGSTNEESISKGGRYVETVNSGSKSFSLRINDLTVEDSGTYRCKVFAPLSSILRGCNYRKHDVYGDGTAVTVNA
notes: as for B1
A450 (recombinant mouse TfR-1): 0.118 A450 | A450 (recombinant human TfR-1): 0.103 A450

B9: Clone 8.6 (VNAR)
VNAR: ARVDQTPQTITKETGESLTINCVLRDSNCALPSTYWYRKKSGSTNEESISKGGRYVETVNSGSKSFSLRINDLTVEDSGTYRCKVIAQWWSILRGCNYRKHDVYGDGTAVTVNA
notes: as for B1
A450 (recombinant mouse TfR-1): 0.164 A450 | A450 (recombinant human TfR-1): 0.199 A450

B10: Clone 8.97 (VNAR)
VNAR: ARVDQTPQTITKETGESLTINCVLRDSNCALPSTYWYRKKSGSTNEESISKGGRYVETVNSGSKSFSLRINDLTVEDSGTYRCKVIAQLSSILRGCNYNIDDVYGDGTAVTVNA
notes: as for B1
A450 (recombinant human TfR-1): 0.057 A450

B11: Clone 8.2 (VNAR)
VNAR: ARVDQTPQTITKETGESLTINCVLRDSNCALPSTYWYRKKSGSTNEESISKGGRYVETVNSGSKSFSLRINDLTVEDSGTYRCKVLFNLSSILRGCNYRKHDVYGDGTAVTVNA
notes: as for B1
A450 (recombinant mouse TfR-1): 0.242 A450 | A450 (recombinant human TfR-1): 0.315 A450

B12: Clone 8.9 (VNAR)
VNAR: ARVDQTPQTITKETGESLTINCVLRDSNCALPSTYWYRKKSGSTNEESISKGGRYVETVNSGSKSFSLRINDLTVEDSGTYRCKVWNMLSSILRGCNYRKHDVYGDGTAVTVNA
notes: as for B1
A450 (recombinant mouse TfR-1): 0.108 A450 | A450 (recombinant human TfR-1): 0.119 A450

B13: Clone 8.17 (VNAR)
VNAR: ARVDQTPQTITKETGESLTINCVLRDSNCALPSTYWYRKKSGSTNEESISKGGRYVETVNSGSKSFSLRINDLTVEDSGTYRCKVIAYRKSIVRGCNYRKHDVYGDGTAVTVNA
notes: as for B1
A450 (recombinant human TfR-1): 0.091 A450
